Legend:
NT-proBNP = NT-proBNP (UniProt P16860 27-102); test: aptamer-functionalised rGO-FET; 0.01x PBS with Tween; response 10 fg/mL to 100 pg/mL; LOD 100 fg/mL in artificial saliva; 0.01x PBS with Tween (1x PBS: 2.7 mM KCl, 137 mM NaCl, 10 mM phosphate, pH 7.4); LOD in artificial saliva; surface blocked with ethanolamine and BSA; temperature not stated; settings: protein: commercial
proBNP = proBNP (UniProt P16860 27-134); test: aptamer-functionalised CVD graphene FET (GFET); after long-term storage; unexpected concentration-dependent response; 0.01x PBS with Tween (1x PBS: 2.7 mM KCl, 137 mM NaCl, 10 mM phosphate, pH 7.4); LOD in artificial saliva; surface blocked with ethanolamine and BSA; temperature not stated; settings: protein: commercial
Chain of proBNP (P16860 27-134): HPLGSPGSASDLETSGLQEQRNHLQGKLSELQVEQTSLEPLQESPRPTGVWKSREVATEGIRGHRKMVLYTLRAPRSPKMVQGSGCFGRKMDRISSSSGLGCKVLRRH

Chain of NT-proBNP (P16860 27-102): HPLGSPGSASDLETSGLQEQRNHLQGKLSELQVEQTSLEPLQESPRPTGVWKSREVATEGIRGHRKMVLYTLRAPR

B1: N20a aptamer (ssDNA)
DNA: GGCAGGAAGACAAACAGGTCGTAGTGGAAACTGTCCACCGTAGACCGGTTATCTAGTGGTCTGTGGTGCTGT
modifications: 5'-NH2
- binding result (NT-proBNP): binds
- binding result (proBNP): binds
